Data: the supplement of paper PMC9112550, “Optimization of the antimicrobial peptide Bac7 by deep mutational scanning” (BMC Biology, 2022)

Tested on: Escherichia coli TOP10
Assay: shrunken log2 fold change of peptide-encoding DNA abundance (4.5 h post-induction vs induction); higher = less antimicrobial activity (less host growth inhibition)
Details: time post-induction: 4.5 h; library: site-saturation at positions 5, 18, 19, 20
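Further: peptides expressed intracellularly from a pBAD plasmid library in pooled LB shake-flask culture, induced with 0.3% L-arabinose, DNA abundance read by NGS, three biological replicates, DESeq2 with apeglm shrinkage.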

Sequence	shrunken log2 fold change
RRIRARPPRLPRPRPRPFWMPRP	1.14
RRIRARPPRLPRPRPRPFWRPRP	0.36
RRIRARPPRLPRPRPRPGANPRP	0.589
RRIRARPPRLPRPRPRPGARPRP	0.59
RRIRARPPRLPRPRPRPGAVPRP	0.578
RRIRARPPRLPRPRPRPGCRPRP	0.609
RRIRARPPRLPRPRPRPGCSPRP	0.505
RRIRARPPRLPRPRPRPGDFPRP	0.383
RRIRARPPRLPRPRPRPGDRPRP	-0.00146
RRIRARPPRLPRPRPRPGGCPRP	0.81
RRIRARPPRLPRPRPRPGGDPRP	0.604
RRIRARPPRLPRPRPRPGGVPRP	0.626
RRIRARPPRLPRPRPRPGHRPRP	0.033
RRIRARPPRLPRPRPRPGIDPRP	0.652
RRIRARPPRLPRPRPRPGIMPRP	0.113
RRIRARPPRLPRPRPRPGKAPRP	0.266
RRIRARPPRLPRPRPRPGKMPRP	-0.0572
RRIRARPPRLPRPRPRPGLNPRP	0.196
RRIRARPPRLPRPRPRPGLQPRP	0.577
RRIRARPPRLPRPRPRPGMCPRP	0.494

Sequence	shrunken log2 fold change
RRIRARPPRLPRPRPRPGMNPRP	-0.0966
RRIRARPPRLPRPRPRPGPEPRP	1.61
RRIRARPPRLPRPRPRPGPTPRP	0.574
RRIRARPPRLPRPRPRPGPVPRP	0.611
RRIRARPPRLPRPRPRPGQEPRP	0.0636
RRIRARPPRLPRPRPRPGQHPRP	-0.0452
RRIRARPPRLPRPRPRPGRCPRP	0.745
RRIRARPPRLPRPRPRPGRNPRP	0.419
RRIRARPPRLPRPRPRPGRTPRP	0.683
RRIRARPPRLPRPRPRPGSHPRP	0.101
RRIRARPPRLPRPRPRPGTKPRP	0.0261
RRIRARPPRLPRPRPRPGTLPRP	0.22
RRIRARPPRLPRPRPRPGVDPRP	0.664
RRIRARPPRLPRPRPRPGWIPRP	0.161
RRIRARPPRLPRPRPRPGYVPRP	-0.0339
RRIRARPPRLPRPRPRPHADPRP	0.981
RRIRARPPRLPRPRPRPHAMPRP	0.177
RRIRARPPRLPRPRPRPHAYPRP	0.0225
RRIRARPPRLPRPRPRPHEFPRP	0.293
RRIRARPPRLPRPRPRPHEMPRP	0.588

Sequence	shrunken log2 fold change
RRIRARPPRLPRPRPRPHEYPRP	-0.0609
RRIRARPPRLPRPRPRPHFGPRP	0.0349
RRIRARPPRLPRPRPRPHFVPRP	0.0302
RRIRARPPRLPRPRPRPHGEPRP	-0.00651
RRIRARPPRLPRPRPRPHGHPRP	0.125
RRIRARPPRLPRPRPRPHHWPRP	0.145
RRIRARPPRLPRPRPRPHIWPRP	-0.187
RRIRARPPRLPRPRPRPHKTPRP	0.0429
RRIRARPPRLPRPRPRPHLRPRP	0.325
RRIRARPPRLPRPRPRPHMGPRP	0.0766
RRIRARPPRLPRPRPRPHNAPRP	-0.0368
RRIRARPPRLPRPRPRPHNLPRP	-0.201
RRIRARPPRLPRPRPRPHPEPRP	0.7
RRIRARPPRLPRPRPRPHPMPRP	-0.026
RRIRARPPRLPRPRPRPHPVPRP	0.277
RRIRARPPRLPRPRPRPHQCPRP	-0.0483
RRIRARPPRLPRPRPRPHTEPRP	-0.0331
RRIRARPPRLPRPRPRPHTRPRP	0.0581
RRIRARPPRLPRPRPRPHVHPRP	-0.192
RRIRARPPRLPRPRPRPHVSPRP	0.0459
